Source: patent US11987606

Tests used:
[1] = molecular target: T cell receptor of Ova-specific CD8+ T cells (OT-I), on OT-I cells (mouse); assay: flow cytometry; His-tagged protein pre-mixed with PE-labeled α-His mAb, incubated with OT-I cells at 37° C. for 5 hours
[2] = molecular target: T cell receptor of Ova-specific CD8+ T cells (OT-I), on OT-I cells (mouse); assay: cell-based or functional assay

Kb(Ova)/ANXA5 carrying a His tag (peptide-MHC)
mean fluorescence shift relative to the unstained control [1]: 100 fold
percent of OT-I cells pMHC+ (PE fluorescence) [1]: 98%
TCR Vα2 expression downregulated, percent of OT-I cells, compared to the α-His/PE control (flow cytometry) [2]: 90%
